Data: PMC6238587, “Molecular analysis of human Ero1 reveals novel regulatory mechanisms for oxidative protein folding” (Life Science Alliance, 2018)

B1: human PDI with three consecutive FLAG tag sequences inserted before the ER retention signal, non-His-tagged (enzyme)
chain: not shown
notes: human PDI, mature, codon-optimized; residues after the TEV site probably stay on the protein; also called PDI3FLAG; source: E. coli, purified (cobalt IMAC, TEV protease cleavage, anion exchange); not shown: 3xFLAG, internal (after residue 503), kept; His6, N-terminal, cleaved
B2: human Ero1α, wild type, N-terminal His tag (E24-H468) (enzyme, UniProt Q96HE7 24-468, looked up)
chain: EEQPPETAAQRCFCQVSGYLDDCTCDVETIDRFNNYRLFPRLQKLLESDYFRYYKVNLKRPCPFWNDISQCGRRDCAVKPCQSDEVPDGIKSASYKYSEEANNLIEECEQAERLGAVDESLSEETQKAVLQWTKHDDSSDNFCEADDIQSPEAEYVDLLLNPERYTGYKGPDAWKIWNVIYEENCFKPQTIKRPLNPLASGQGTSEENTFYSWLEGLCVEKRAFYRLISGLHASINVHLSARYLLQETWLEKKWGHNITEFQQRFDGILTEGEGPRRLKNLYFLYLIELRALSKVLPFFERPDFQLFTGNKIQDEENKMLLLEILHEIKSFPLHFDENSFFAGDKKEAHKLKEDFRLHFRNISRIMDCVGCFKCRLWGKLQTQGLGTALKILFSEKLIANMPESGPSYEFHLTRQEIVSLFNAFGRISTSVKELENFRNLLQNIH
modifications: (phospho)gluconoylation of the N-terminal His tag, gluconoylated species the major state
notes: human Ero1α, mature, residues E24-H468; With co-expressed PDI it purifies as a heterodimer; also called endoplasmic reticulum oxidoreductin 1 alpha; CCCC; source: E. coli BL21(DE3)ΔtrxAΔtrxC with CyDisCo components co-expressed; in lysate, and purified (cobalt IMAC, anion exchange, size exclusion)
B5: human Ero1β, wild type, N-terminal His tag (Q34-R467, natural D129V and H465Q variant) (enzyme, UniProt Q86YB8 34-467, looked up)
chain: QVTGVLDDCLCDIDSIDNFNTYKIFPKIKKLQERDYFRYYKVNLKRPCPFWAEDGHCSIKDCHVEPCPESKIPVGIKAGHSNKYLKMANNTKELEVCEQANKLGAINSTLSNQSKEAFIDWARYDDSRDHFCELDDERSPAAQYVDLLLNPERYTGYKGTSAWRVWNSIYEENCFKPRSVYRPLNPLAPSRGEDDGESFYTWLEGLCLEKRVFYKLISGLHASINLHLCANYLLEETWGKPSWGPNIKEFKHRFDPVETKGEGPRRLKNLYFLYLIELRALSKVAPYFERSIVDLYTGNAEEDADTKTLLLNIFQDTKSFPMHFDEKSMFAGDKKGAKSLKEEFRLHFKNISRIMDCVGCDKCRLWGKLQTQGLGTALKILFSEKEIQKLPENSPSKGFQLTRQEIVALLNAFGRLSTSIRDLQNFKVLLQQSR
modifications: (phospho)gluconoylation of the N-terminal His tag, gluconoylated species the major state
notes: human Ero1β, mature, residues Q34-R467, natural D129V and H465Q variant; With co-expressed PDI it purifies as a heterodimer; also called CCCC; source: E. coli BL21(DE3)ΔtrxAΔtrxC with CyDisCo components co-expressed; in lysate, and purified (cobalt IMAC, anion exchange, size exclusion)
B6: human PDI, wild type, non-tagged, purified (enzyme)
chain: not shown

Legend:
[1] = target: B5; experiment: pull-down; PDI exchange assay: 1 μM His-tagged Ero1–PDI heterodimer with non-His-tagged PDI, PDI3FLAG or other PDI family member (1:1 or 10:1), 1 h at RT, 20 mM sodium phosphate pH 7.3, 150 mM NaCl; Ni-NTA spin columns with 10 mM imidazole; reducing SDS–PAGE; settings: both partners purified
[2] = target: B2; experiment: as above; settings: both partners purified
[3] = target: B6; experiment: as above; settings: both partners purified
[4] = target: B1; experiment: pull-down; PDI exchange assay with the redox state of both components fixed by GSSG before mixing; settings: both partners purified
[5] = target: His-tagged Ero1β–PDI heterodimer (human, UniProt Q86YB8 34-467; P07237 18-508, D129V | H465Q, (phospho)gluconoylation of the N-terminal His tag, gluconoylated species the major state); experiment: cell-based or functional assay
[6] = target: T1, human Ero1α C104A/C131A, N-terminal His tag (human, UniProt Q96HE7 24-468, C104A | C131A); experiment: pull-down; His-tagged Ero1 co-expressed with untagged PDI (CyDisCo) in E. coli; large-scale purification by cobalt IMAC, anion exchange and size-exclusion chromatography; SDS–PAGE; settings: partners not purified
T1 construct: human Ero1α, mature, residues E24-H468; also called CCAA (h.a.); source: E. coli BL21(DE3)ΔtrxAΔtrxC with CyDisCo (Erv1p, PDI) co-expressed; in lysate, and purified
T1 sequence (looked up): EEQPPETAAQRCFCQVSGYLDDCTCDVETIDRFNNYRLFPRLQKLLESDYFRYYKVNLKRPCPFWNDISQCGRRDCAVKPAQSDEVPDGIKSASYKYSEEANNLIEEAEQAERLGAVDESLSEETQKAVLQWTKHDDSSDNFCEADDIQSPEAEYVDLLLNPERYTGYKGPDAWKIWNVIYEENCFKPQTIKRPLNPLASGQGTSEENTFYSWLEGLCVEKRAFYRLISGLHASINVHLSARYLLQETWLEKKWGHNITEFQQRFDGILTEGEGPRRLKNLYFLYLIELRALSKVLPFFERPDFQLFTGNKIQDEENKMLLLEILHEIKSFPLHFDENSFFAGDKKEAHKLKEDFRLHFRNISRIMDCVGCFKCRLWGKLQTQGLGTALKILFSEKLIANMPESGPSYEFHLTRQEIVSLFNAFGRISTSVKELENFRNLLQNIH

[7] = target: B5; experiment: as above; settings: partners not purified
[8] = target: B2; experiment: as above; settings: partners not purified
[9] = target: T2, human Ero1β C100/130A, N-terminal His tag (human, UniProt Q86YB8 34-467, D129V | H465Q | C100/130A | C100/130A); experiment: as above; settings: partners not purified
T2 construct: human Ero1β, mature, residues Q34-R467, natural D129V and H465Q variant; also called CCAA (h.a.); source: E. coli BL21(DE3)ΔtrxAΔtrxC with CyDisCo (Erv1p, PDI) co-expressed; in lysate, and purified
T2 sequence (looked up): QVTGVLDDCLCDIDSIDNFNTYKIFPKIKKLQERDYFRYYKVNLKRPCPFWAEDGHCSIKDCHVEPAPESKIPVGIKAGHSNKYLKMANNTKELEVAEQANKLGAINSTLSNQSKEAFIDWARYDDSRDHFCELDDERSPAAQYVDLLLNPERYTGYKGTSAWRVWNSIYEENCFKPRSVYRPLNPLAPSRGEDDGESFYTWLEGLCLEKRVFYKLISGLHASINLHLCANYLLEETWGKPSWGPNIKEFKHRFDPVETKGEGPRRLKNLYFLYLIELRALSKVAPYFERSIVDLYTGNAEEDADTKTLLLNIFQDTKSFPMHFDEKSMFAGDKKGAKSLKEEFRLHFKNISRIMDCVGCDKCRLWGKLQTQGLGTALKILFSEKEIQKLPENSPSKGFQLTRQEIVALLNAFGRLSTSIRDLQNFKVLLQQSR

[10] = target: His-tagged Ero1α–PDI heterodimer (human, UniProt Q96HE7 24-468; P07237 18-508, (phospho)gluconoylation of the N-terminal His tag, gluconoylated species the major state); experiment: cell-based or functional assay
Chain of His-tagged Ero1α–PDI heterodimer (P07237 18-508, one chain of several): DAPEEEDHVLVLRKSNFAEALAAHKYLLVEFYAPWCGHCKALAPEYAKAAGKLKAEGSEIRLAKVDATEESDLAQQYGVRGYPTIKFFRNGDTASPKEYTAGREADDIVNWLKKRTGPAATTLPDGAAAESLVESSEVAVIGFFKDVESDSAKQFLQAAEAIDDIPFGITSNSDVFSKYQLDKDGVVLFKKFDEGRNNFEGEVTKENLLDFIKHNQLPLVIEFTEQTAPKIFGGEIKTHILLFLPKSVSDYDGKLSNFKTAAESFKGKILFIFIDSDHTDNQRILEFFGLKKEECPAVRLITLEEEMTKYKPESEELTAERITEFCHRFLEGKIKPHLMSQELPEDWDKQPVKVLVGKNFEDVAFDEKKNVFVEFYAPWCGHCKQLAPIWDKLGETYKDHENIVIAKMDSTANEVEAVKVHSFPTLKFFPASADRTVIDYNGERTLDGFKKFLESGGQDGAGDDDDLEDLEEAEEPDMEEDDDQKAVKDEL

Chain of His-tagged Ero1β–PDI heterodimer (P07237 18-508, stated change not applied, one chain of several): as the sequence (P07237 18-508, one chain of several) above

B1
ratio of co-purified PDI3FLAG to wild-type PDI (PDI3FLAG added 1:1) [1]: ~1 PDI3FLAG per wild-type PDI
wild-type PDI left in the complex with 10-fold PDI3FLAG, percent of the original [1]: ~10%
ratio of co-purified PDI3FLAG to wild-type PDI (PDI3FLAG added 1:1) [2]: ~1 PDI3FLAG per wild-type PDI
wild-type PDI left in the complex with 10-fold PDI3FLAG, percent of the original [2]: ~10%

B2
binding result [3]: binds
binding result [4]: binds

B3: human PDIp, non-tagged (enzyme, UniProt Q13087 22-525, looked up)
chain: QEQGARSPSEEPPEEEIPKEDGILVLSRHTLGLALREHPALLVEFYAPWCGHCQALAPEYSKAAAVLAAESMVVTLAKVDGPAQRELAEEFGVTEYPTLKFFRNGNRTHPEEYTGPRDAEGIAEWLRRRVGPSAMRLEDEAAAQALIGGRDLVVIGFFQDLQDEDVATFLALAQDALDMTFGLTDRPRLFQQFGLTKDTVVLFKKFDEGRADFPVDEELGLDLGDLSRFLVTHSMRLVTEFNSQTSAKIFAARILNHLLLFVNQTLAAHRELLAGFGEAAPRFRGQVLFVVVDVAADNEHVLQYFGLKAEAAPTLRLVNLETTKKYAPVDGGPVTAASITAFCHAVLNGQVKPYLLSQEIPPDWDQRPVKTLVGKNFEQVAFDETKNVFVKFYAPWCTHCKEMAPAWEALAEKYQDHEDIIIAELDATANELDAFAVHGFPTLKYFPAGPGRKVIEYKSTRDLETFSKFLDNGGVLPTEEPPEEPAAPFPEPPANSTMGSKEEL
acceleration of kcat of oxygen consumption by 10 μM external PDIp [5]: 3.7 fold

B4: human protein disulfide isomerase (PDI), wild type, co-expressed CyDisCo component (enzyme)
chain: not shown
notes: human PDI, wild-type codon-optimized gene of the CyDisCo plasmid pMJS205; also called wild-type PDI; source: E. coli BL21(DE3)ΔtrxAΔtrxC, co-expressed with Ero1 from pMJS205; in lysate, and co-purified with His-tagged Ero1
stoichiometry N [6]: 1 PDI per Ero1
stoichiometry N [7]: ~1 PDI per Ero1
stoichiometry N [8]: ~1 PDI per Ero1
stoichiometry N [9]: 1 PDI per Ero1

B5
binding result [3]: binds
binding result [4]: binds

B6
acceleration of kcat of oxygen consumption by 10 μM external PDI [10]: 7.1 fold
acceleration of kcat of oxygen consumption by 10 μM external PDI [5]: 4.8 fold
